For this test, the target named is human Axl on MDA-MB-231 cells (human) (UniProt P30530).
UniProt P30530, sequence (P30530 26-894 Q764R limits assumed): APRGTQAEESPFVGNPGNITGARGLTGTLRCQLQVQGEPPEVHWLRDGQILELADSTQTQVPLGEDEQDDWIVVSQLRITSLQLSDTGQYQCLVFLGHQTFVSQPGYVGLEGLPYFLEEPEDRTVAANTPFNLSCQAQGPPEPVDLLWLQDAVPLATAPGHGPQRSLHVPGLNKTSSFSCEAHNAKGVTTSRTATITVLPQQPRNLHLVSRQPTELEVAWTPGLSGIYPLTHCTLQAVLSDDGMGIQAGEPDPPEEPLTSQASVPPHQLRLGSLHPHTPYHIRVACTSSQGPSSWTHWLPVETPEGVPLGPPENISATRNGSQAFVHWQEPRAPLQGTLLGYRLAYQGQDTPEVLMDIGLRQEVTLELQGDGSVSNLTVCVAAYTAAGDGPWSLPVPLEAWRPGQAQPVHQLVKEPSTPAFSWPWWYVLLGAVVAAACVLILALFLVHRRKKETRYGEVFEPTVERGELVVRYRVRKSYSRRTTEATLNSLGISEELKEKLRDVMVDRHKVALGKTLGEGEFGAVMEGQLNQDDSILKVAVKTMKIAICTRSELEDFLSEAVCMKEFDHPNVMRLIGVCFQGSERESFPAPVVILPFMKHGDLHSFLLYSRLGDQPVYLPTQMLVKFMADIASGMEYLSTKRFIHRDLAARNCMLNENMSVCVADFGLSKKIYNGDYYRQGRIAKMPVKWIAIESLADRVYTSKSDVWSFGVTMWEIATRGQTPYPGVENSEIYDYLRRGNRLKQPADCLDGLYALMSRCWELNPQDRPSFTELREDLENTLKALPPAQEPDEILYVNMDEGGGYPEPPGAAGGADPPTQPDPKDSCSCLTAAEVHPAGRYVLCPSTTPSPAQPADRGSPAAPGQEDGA

On to Control SAP, for which the EC50 (pM), concentration leading to 50% cell killing, XTT/PMS viability of MDA-MB-231 cells after 72 h [table] turned out to be 4080 pM. To Saporin belongs 79800 pM.

Source of the values: patent publication US20170107290A1.
